# Reference: patent publication US20220125940A1 (Novo Nordisk, published 2022)
# Starred links: 1 amine or outer side, 2 acyl side, 3 side chain; linkers in the order of their positions; H or OH if unused. Non-standard residues stand in square brackets, D forms with d. Groups on a side chain read outwards from the residue. No end group written: not given here. *: point of attachment. C18 diacid = O=C(O)CCCCCCCCCCCCCCCCC(=O)*; γGlu = O=C(O)[C@H](CCC(=O)[*:2])N[*:1]; εLys = N[C@@H](CCCCN[*:1])C(=O)[*:2]; AEEA = NCCOCCOCC(=O)O; Aib = CC(C)(N)C(=O)O
# T1: human GIP receptor (human, UniProt P48546 22-466)
# T1 sequence (looked up): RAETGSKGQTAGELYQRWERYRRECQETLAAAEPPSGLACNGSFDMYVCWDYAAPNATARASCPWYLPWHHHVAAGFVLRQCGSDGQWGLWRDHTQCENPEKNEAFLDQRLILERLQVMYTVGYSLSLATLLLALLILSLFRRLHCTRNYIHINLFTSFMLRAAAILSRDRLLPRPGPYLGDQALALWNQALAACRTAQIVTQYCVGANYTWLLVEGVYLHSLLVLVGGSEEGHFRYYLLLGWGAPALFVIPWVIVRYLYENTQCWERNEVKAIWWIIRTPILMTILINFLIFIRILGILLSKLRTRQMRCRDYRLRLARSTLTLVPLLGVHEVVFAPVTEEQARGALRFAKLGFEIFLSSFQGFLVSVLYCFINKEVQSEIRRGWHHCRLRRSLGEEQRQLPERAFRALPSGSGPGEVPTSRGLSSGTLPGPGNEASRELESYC
# B1: Compound No. 18 (peptide)
# peptide: Y[Aib]EGTFTSDYSILLEK([εLys-εLys-γGlu-C18 diacid])QAAREFINWLLAG-OH
# modifications: N-terminus assumed
# SMILES: CC[C@H](C)[C@H](NC(=O)[C@H](Cc1ccccc1)NC(=O)[C@H](CCC(=O)O)NC(=O)[C@H](CCCNC(=N)N)NC(=O)[C@H](C)NC(=O)[C@H](C)NC(=O)[C@H](CCC(N)=O)NC(=O)[C@H](CCCCNC(=O)[C@@H](N)CCCCNC(=O)[C@@H](N)CCCCNC(=O)CC[C@H](NC(=O)CCCCCCCCCCCCCCCCC(=O)O)C(=O)O)NC(=O)[C@H](CCC(=O)O)NC(=O)[C@H](CC(C)C)NC(=O)[C@H](CC(C)C)NC(=O)[C@@H](NC(=O)[C@H](CO)NC(=O)[C@H](Cc1ccc(O)cc1)NC(=O)[C@H](CC(=O)O)NC(=O)[C@H](CO)NC(=O)[C@@H](NC(=O)[C@H](Cc1ccccc1)NC(=O)[C@@H](NC(=O)CNC(=O)[C@H](CCC(=O)O)NC(=O)C(C)(C)NC(=O)[C@@H](N)Cc1ccc(O)cc1)[C@@H](C)O)[C@@H](C)O)[C@@H](C)CC)C(=O)N[C@@H](CC(N)=O)C(=O)N[C@@H](Cc1c[nH]c2ccccc12)C(=O)N[C@@H](CC(C)C)C(=O)N[C@@H](CC(C)C)C(=O)N[C@@H](C)C(=O)NCC(=O)O
# B2: Compound No. 21 (peptide)
# peptide: Y[Aib]EGTFTSDYSILLEK([εLys-εLys-γGlu-C18 diacid])QAAREFINWLLAGGPSSGA-OH
# modifications: N-terminus assumed
# SMILES: CC[C@H](C)[C@H](NC(=O)[C@H](Cc1ccccc1)NC(=O)[C@H](CCC(=O)O)NC(=O)[C@H](CCCNC(=N)N)NC(=O)[C@H](C)NC(=O)[C@H](C)NC(=O)[C@H](CCC(N)=O)NC(=O)[C@H](CCCCNC(=O)[C@@H](N)CCCCNC(=O)[C@@H](N)CCCCNC(=O)CC[C@H](NC(=O)CCCCCCCCCCCCCCCCC(=O)O)C(=O)O)NC(=O)[C@H](CCC(=O)O)NC(=O)[C@H](CC(C)C)NC(=O)[C@H](CC(C)C)NC(=O)[C@@H](NC(=O)[C@H](CO)NC(=O)[C@H](Cc1ccc(O)cc1)NC(=O)[C@H](CC(=O)O)NC(=O)[C@H](CO)NC(=O)[C@@H](NC(=O)[C@H](Cc1ccccc1)NC(=O)[C@@H](NC(=O)CNC(=O)[C@H](CCC(=O)O)NC(=O)C(C)(C)NC(=O)[C@@H](N)Cc1ccc(O)cc1)[C@@H](C)O)[C@@H](C)O)[C@@H](C)CC)C(=O)N[C@@H](CC(N)=O)C(=O)N[C@@H](Cc1c[nH]c2ccccc12)C(=O)N[C@@H](CC(C)C)C(=O)N[C@@H](CC(C)C)C(=O)N[C@@H](C)C(=O)NCC(=O)NCC(=O)N1CCC[C@H]1C(=O)N[C@@H](CO)C(=O)N[C@@H](CO)C(=O)NCC(=O)N[C@@H](C)C(=O)O
# B3: Compound No. 20 (peptide)
# peptide: Y[Aib]EGTFTSDYSILLEK([εLys-εLys-γGlu-C18 diacid])QAAREFINWLLAGGPSS-OH
# modifications: N-terminus assumed
# SMILES: CC[C@H](C)[C@H](NC(=O)[C@H](Cc1ccccc1)NC(=O)[C@H](CCC(=O)O)NC(=O)[C@H](CCCNC(=N)N)NC(=O)[C@H](C)NC(=O)[C@H](C)NC(=O)[C@H](CCC(N)=O)NC(=O)[C@H](CCCCNC(=O)[C@@H](N)CCCCNC(=O)[C@@H](N)CCCCNC(=O)CC[C@H](NC(=O)CCCCCCCCCCCCCCCCC(=O)O)C(=O)O)NC(=O)[C@H](CCC(=O)O)NC(=O)[C@H](CC(C)C)NC(=O)[C@H](CC(C)C)NC(=O)[C@@H](NC(=O)[C@H](CO)NC(=O)[C@H](Cc1ccc(O)cc1)NC(=O)[C@H](CC(=O)O)NC(=O)[C@H](CO)NC(=O)[C@@H](NC(=O)[C@H](Cc1ccccc1)NC(=O)[C@@H](NC(=O)CNC(=O)[C@H](CCC(=O)O)NC(=O)C(C)(C)NC(=O)[C@@H](N)Cc1ccc(O)cc1)[C@@H](C)O)[C@@H](C)O)[C@@H](C)CC)C(=O)N[C@@H](CC(N)=O)C(=O)N[C@@H](Cc1c[nH]c2ccccc12)C(=O)N[C@@H](CC(C)C)C(=O)N[C@@H](CC(C)C)C(=O)N[C@@H](C)C(=O)NCC(=O)NCC(=O)N1CCC[C@H]1C(=O)N[C@@H](CO)C(=O)N[C@@H](CO)C(=O)O
# B4: Compound No. 19 (peptide)
# peptide: Y[Aib]EGTFTSDYSILLEK([εLys-εLys-γGlu-C18 diacid])QAAREFINWLLAGGP-OH
# modifications: N-terminus assumed
# SMILES: CC[C@H](C)[C@H](NC(=O)[C@H](Cc1ccccc1)NC(=O)[C@H](CCC(=O)O)NC(=O)[C@H](CCCNC(=N)N)NC(=O)[C@H](C)NC(=O)[C@H](C)NC(=O)[C@H](CCC(N)=O)NC(=O)[C@H](CCCCNC(=O)[C@@H](N)CCCCNC(=O)[C@@H](N)CCCCNC(=O)CC[C@H](NC(=O)CCCCCCCCCCCCCCCCC(=O)O)C(=O)O)NC(=O)[C@H](CCC(=O)O)NC(=O)[C@H](CC(C)C)NC(=O)[C@H](CC(C)C)NC(=O)[C@@H](NC(=O)[C@H](CO)NC(=O)[C@H](Cc1ccc(O)cc1)NC(=O)[C@H](CC(=O)O)NC(=O)[C@H](CO)NC(=O)[C@@H](NC(=O)[C@H](Cc1ccccc1)NC(=O)[C@@H](NC(=O)CNC(=O)[C@H](CCC(=O)O)NC(=O)C(C)(C)NC(=O)[C@@H](N)Cc1ccc(O)cc1)[C@@H](C)O)[C@@H](C)O)[C@@H](C)CC)C(=O)N[C@@H](CC(N)=O)C(=O)N[C@@H](Cc1c[nH]c2ccccc12)C(=O)N[C@@H](CC(C)C)C(=O)N[C@@H](CC(C)C)C(=O)N[C@@H](C)C(=O)NCC(=O)NCC(=O)N1CCC[C@H]1C(=O)O
# B5: Compound No. 10 (peptide)
# peptide: Y[Aib]EGTFTSDYSIYLEK([AEEA-AEEA-γGlu-C18 diacid])QAAREFIEWLLAGGPSSGAPPPS-OH
# modifications: N-terminus assumed
# SMILES: CC[C@H](C)[C@H](NC(=O)[C@H](Cc1ccccc1)NC(=O)[C@H](CCC(=O)O)NC(=O)[C@H](CCCNC(=N)N)NC(=O)[C@H](C)NC(=O)[C@H](C)NC(=O)[C@H](CCC(N)=O)NC(=O)[C@H](CCCCNC(=O)COCCOCCNC(=O)COCCOCCNC(=O)CC[C@H](NC(=O)CCCCCCCCCCCCCCCCC(=O)O)C(=O)O)NC(=O)[C@H](CCC(=O)O)NC(=O)[C@H](CC(C)C)NC(=O)[C@H](Cc1ccc(O)cc1)NC(=O)[C@@H](NC(=O)[C@H](CO)NC(=O)[C@H](Cc1ccc(O)cc1)NC(=O)[C@H](CC(=O)O)NC(=O)[C@H](CO)NC(=O)[C@@H](NC(=O)[C@H](Cc1ccccc1)NC(=O)[C@@H](NC(=O)CNC(=O)[C@H](CCC(=O)O)NC(=O)C(C)(C)NC(=O)[C@@H](N)Cc1ccc(O)cc1)[C@@H](C)O)[C@@H](C)O)[C@@H](C)CC)C(=O)N[C@@H](CCC(=O)O)C(=O)N[C@@H](Cc1c[nH]c2ccccc12)C(=O)N[C@@H](CC(C)C)C(=O)N[C@@H](CC(C)C)C(=O)N[C@@H](C)C(=O)NCC(=O)NCC(=O)N1CCC[C@H]1C(=O)N[C@@H](CO)C(=O)N[C@@H](CO)C(=O)NCC(=O)N[C@@H](C)C(=O)N1CCC[C@H]1C(=O)N1CCC[C@H]1C(=O)N1CCC[C@H]1C(=O)N[C@@H](CO)C(=O)O
# Experiments:
# human GIP receptor = target: T1, human GIP receptor; assay: cell-based or functional assay
# human GLP-1 receptor = human GLP-1 receptor (human, UniProt P43220 24-463); assay: cell-based or functional assay
# human GLP-1 receptor, sequence (P43220 24-463): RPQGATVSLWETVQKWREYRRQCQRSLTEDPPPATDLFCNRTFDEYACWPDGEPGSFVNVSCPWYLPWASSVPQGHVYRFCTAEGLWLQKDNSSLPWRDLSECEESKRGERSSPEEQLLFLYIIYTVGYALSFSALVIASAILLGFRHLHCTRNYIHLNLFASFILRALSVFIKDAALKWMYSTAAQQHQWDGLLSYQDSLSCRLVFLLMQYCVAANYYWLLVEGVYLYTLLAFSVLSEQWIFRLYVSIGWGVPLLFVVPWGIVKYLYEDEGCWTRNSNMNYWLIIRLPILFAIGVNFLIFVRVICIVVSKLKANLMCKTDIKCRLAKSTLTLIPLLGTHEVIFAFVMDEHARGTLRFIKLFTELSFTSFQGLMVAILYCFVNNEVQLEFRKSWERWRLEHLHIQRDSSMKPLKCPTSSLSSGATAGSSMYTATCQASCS
Molecule,"hGIPR, CRE Luc 0% HSA EC50 (pM) (human GIP receptor)","hGIPR, CRE Luc 1% HSA EC50 (pM) (human GIP receptor)","hGLP-1R, CRE Luc 0% HSA EC50 (pM) (human GLP-1 receptor)","hGLP-1R, CRE Luc 1% HSA EC50 (pM) (human GLP-1 receptor)"
human GIP (from UniProt P09681 52-93) (ligand),11.3 pM,6.4 pM,,
B1,20.9 pM,285 pM,19.7 pM,226 pM
B2,5.4 pM,131 pM,5.7 pM,118 pM
B3,7.1 pM,247 pM,4.2 pM,256 pM
B4,6.5 pM,275 pM,8.6 pM,365 pM
B5,11.3 pM,,,
